Measured values published in patent publication US20240117030A1.
Read-outs that look alike come from different tables or passages of the source.

Legend:
[1] = biological target: recombinant human IL-33 (R&D Systems 3625-IL), reduced with DTT (human) (UniProt O95760); assay: cell-based or functional assay
[2] = biological target: recombinant human IL-33 (R&D Systems 3625-IL), reduced with DTT (human) (UniProt O95760); assay: cell-based or functional assay; remark: listed apart in the source
[3] = biological target: T1, biotinylated human IL-33 wild-type (WT), reduced with 3 mM DTT (human) (UniProt O95760); assay: KinExA solution affinity, fixed antigen format, global fit
T1 sequence (biotinylated (site not stated), looked up): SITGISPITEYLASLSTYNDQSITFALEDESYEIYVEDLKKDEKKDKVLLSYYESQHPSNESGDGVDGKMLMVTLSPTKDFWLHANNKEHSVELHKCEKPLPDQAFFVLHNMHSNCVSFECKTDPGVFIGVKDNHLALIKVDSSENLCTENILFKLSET

[4] = biological target: recombinant human IL-13 R110Q (human), P35225; assay: cell-based or functional assay
Chain of recombinant human IL-13 R110Q (human), P35225 (P35225 35-146, stated change not applied): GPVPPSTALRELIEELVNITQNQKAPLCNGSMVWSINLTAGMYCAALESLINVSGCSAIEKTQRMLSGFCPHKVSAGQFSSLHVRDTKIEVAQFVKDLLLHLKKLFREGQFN

[5] = biological target: recombinant human IL-33 (R&D Systems 3625-IL) (human) (UniProt O95760); assay: cell-based or functional assay

B1: IL33-0352 (Clinical Benchmark) (antibody, INN chains, looked up, V domains shown)
VH: EVQLVESGGNLEQPGGSLRLSCTASGFTFSRSAMNWVRRAPGKGLEWVSGISGSGGRTYYADSVKGRFTISRDNSKNTLYLQMNSLSAEDTAAYYCAKDSYTTSWYGGMDVWGHGTTVTVSS
VL: DIQMTQSPSSVSASVGDRVTITCRASQGIFSWLAWYQQKPGKAPKLLIYAASSLQSGVPSRFSGSGSGTDFTLTISSLQPEDFAIYYCQQANSVPITFGQGTRLEIK
modifications: IgG1 effector-null
[1]
  IC50 [nM] versus reduced human IL-33 (R&D), IC50 (AVE): 0.011 nM
[2]
  IC50 [nM] versus reduced human IL-33 (R&D), IC50 (AVE): 0.018 nM
[3]
  Kd: 0.66 pM

B2: IL13-0001 (antibody, human IgG1, kappa)
heavy: EVQLVESGGGLVQPGGSLRLSCAASGFTFSSYAMSWVRQAPGKGLEWVASISSGDTTYYPDSVKGRFTISRDNAKNSLYLQMNSLRAEDTAVYYCARNEGYYFGLTLWGQGTLVTVSSASTKGPSVFPLAPSSKSTSGGTAALGCLVKDYFPEPVTVSWNSGALTSGVHTFPAVLQSSGLYSLSSVVTVPSSSLGTQTYICNVNHKPSNTKVDKKVEPKSCDKTHTCPPCPAPEAAGAPSVFLFPPKPKDTLMISRTPEVTCVVVDVSHEDPEVKFNWYVDGVEVHNAKTKPREEQYNSTYRVVSVLTVLHQDWLNGKEYKCKVSNKALPAPIEKTISKAKGQPREPQVYTLPPSREEMTKNQVSLTCLVKGFYPSDIAVEWESNGQPENNYKTTPPVLDSDGSFFLYSKLTVDKSRWQQGNVFSCSVMHEALHNHYTQKSLSLSPGK
light: DIQMTQSPSSLSASVGDRVTITCKASESVDHFGWSLVHWYQQKPGKAPKLLIYRASNLESGVPSRFSGSGSGTDFTLTISSLQPEDFATYYCQQSNEDPWTFGGGTKVEIKRTVAAPSVFIFPPSDEQLKSGTASVVCLLNNFYPREAKVQWKVDNALQSGNSQESVTEQDSKDSTYSLSSTLTLSKADYEKHKVYACEVTHQGLSSPVTKSFNRGEC
[4]
  IC50 (median), Monocyte CD23 expression: 10.1 pM
  IC50 (median), STAT6 phosphorylation in HT-29 cells: 104 pM

B3: IL33-310 (antibody, from a related filing, V domains shown)
VH: EVQLVESGGGLVQPGGSLRLSCAASGFTFSSFSMSWVRQAPGKGLEWVATISGGKTFTDYVDSVKGRFTISRDDSKNTLYLQMNSLRAEDTAVYYCTRANYGNWFFEVWGQGTLVTVSS
VL: EIVLTQSPATLSLSPGERATLSCRASESVAKYGLSLLNWFQQKPGQPPRLLIFAASNRGSGIPARFSGSGSGTDFTLTISSLEPEDFAVYYCQQSKEVPFTFGQGTKVEIKR
[5]
  IC50 (pM) HEK-Blue IL-33 SEAP (mean): 56.4 pM

B4: IL33-265 (antibody, from a related filing, V domains shown)
VH: B1 VH
VL: DIQMTQSPSSVSASVGDRVTITCRASQGIFSWLAWYQQKPGKAPKLLIYAASSLQSGVPSRFSGSGSGTDFTLTISSLQPEDFAIYYCQQANSVPITFGQGTRLEIKR
[5]
  IC50 (pM) HEK-Blue IL-33 SEAP (mean): 15.9 pM
